Test results as given in patent publication US20150361464A1, “METHODS, REAGENTS AND CELLS FOR BIOSYNTHESIZING COMPOUNDS” (INVISTA North America S.á r.l., priority 2014, published 2015).

Experiments:
[1] = ω-transaminase enzyme activity assay, reverse direction (5-aminopentanoate to glutarate semialdehyde), cell free extract; format: biochemical; details: 10 mM 5-aminopentanoate, 10 mM pyruvate, pH 7.5, 25° C., 4 hours; against the empty vector control; FIG. 15
Protocol: (§1) A nucleotide sequence encoding an N-terminal His-tag was added to the genes from Chromobacterium violaceum and Rhodobacter sphaeroides encoding the ω-transaminases of SEQ ID NOs: 8 and 10 respectively (see FIG. 10) such that N-terminal HIS tagged ω-transaminases could be produced. Each of the resulting modified genes was cloned into a pET21a expression vector under control of the T7 promoter and each expression vector was transformed into a BL21[DE3] E. coli host. The resulting recombinant E. coli strains were cultivated at 37° C. in a 250 mL shake flask culture containing 50 mL LB media and antibiotic selection pressure, with shaking at 230 rpm. Each culture was induced overnight at 16° C. using 1 mM IPTG.
(§2) The pellet from each induced shake flask culture was harvested via centrifugation. Each pellet was resuspended and lysed via sonication. The cell debris was separated from the supernatant via centrifugation and the cell free extract was used immediately in enzyme activity assays.
Enzyme activity assays in the reverse direction (i.e., 5-aminopentanoate to glutarate semialdehyde) were performed in a buffer composed of a final concentration of 50 mM HEPES buffer (pH=7.5), 10 mM 5-aminopentanoate, 10 mM pyruvate and 100 μM pyridoxyl 5′ phosphate. […] The formation of L-alanine from pyruvate was quantified via RP-HPLC.

[2] = ω-transaminase enzyme activity assay, forward direction (glutarate semialdehyde to 5-aminopentanoate), cell free extract; format: biochemical; details: conclusion from reverse and forward direction assays
Protocol: as §1, §2
Enzyme activity in the forward direction (i.e., glutarate semialdehyde to 5-aminopentanoate) was confirmed for the transaminase of SEQ ID NO: 10. Enzyme activity assays were performed in a buffer composed of a final concentration of 50 mM HEPES buffer (pH=7.5), 10 mM glutarate semialdehyde, 10 mM L-alanine and 100 μM pyridoxyl 5′ phosphate. Each enzyme activity assay reaction was initiated by adding a cell free extract of the ω-transaminase gene product or the empty vector control to the assay buffer containing the glutarate semialdehyde and incubated at 25° C. for 4 hours, with shaking at 250 rpm. The formation of pyruvate was quantified via RP-HPLC.

B1: SEQ ID NO: 8: Chromobacterium violaceum ω-transaminase, N-terminal HIS tagged, cell free extract (protein, listed as Chromobacterium violaceum)
chain: MQKQRTTSQWRELDAAHHLHPFTDTASLNQAGARVMTRGEGVYLWDSEGNKIIDGMAGLWCVNVGYGRKDFAEAARRQMEELPFYNTFFKTTHPAVVELSSLLAEVTPAGFDRVFYTNSGSESVDTMIRMVRRYWDVQGKPEKKTLIGRWNGYHGSTIGGASLGGMKYMHEQGDLPIPGMAHIEQPWWYKHGKDMTPDEFGVVAARWLEEKILEIGADKVAAFVGEPIQGAGGVIVPPATYWPEIERICRKYDVLLVADEVICGFGRTGEWFGHQHFGFQPDLFTAAKGLSSGYLPIGAVFVGKRVAEGLIAGGDFNHGFTYSGHPVCAAVAHANVAALRDEGIVQRVKDDIGPYMQKRWRETFSRFEHVDDVRGVGMVQAFTLVKNKAKRELFPDFGEIGTLCRDIFFRNNLIMRACGDHIVSAPPLVMTRAEVDEMLAVAERCLEEFEQTLKARGLA
modifications: N-terminal His tag
notes: Chromobacterium violaceum ω-transaminase, N-terminal HIS tagged, cell free extract
- acceptance of 5-aminopentanoate as substrate (formation of L-alanine from pyruvate, RP-HPLC) [1]: accepted 5-aminopentanoate as substrate
- acceptance of glutarate semialdehyde as substrate and synthesis of 5-aminopentanoate, concluded from reversibility of the ω-transaminase activity [2]: accepted glutarate semialdehyde as substrate and synthesized 5-aminopentanoate
